Test results: patent US20230257454A1 (STAIDSON BEIJING BIOPHARMACEUTICALS, published 2023)
Substitutions are numbered along the chain they refer to.

B1: Cab20 scFv (scFv, V domains shown)
VH: EVQLVESGGGLVQPGGSLKVSCAASGFTFRDYYMQWVRQAPGKGPEWVGLIRNKAIGETAEYAASVKGRFTISRDDSKSIVYLQMSSLKTEDTAVYYCTSRAGPPGLSWGQGVLVTVSS
VL: DIVMIQNPLSLPVTPGEPASISCRSSQSLLHSDGYTYLDWYLQKPGQSPQLLIYGGSNRASGVPDRFSGSGSGTDFTLKISKVEAEDVGVYYCMQHKVLPLTFAGGTKLEIK
B2: Cab06 scFv (scFv, V domains shown)
VH: EVHLVESGGGLVQPGGSLKVSCAASGFIFSDYYMQWVRQAPGKGPEWVGLIRKKVNGGTTEYAASVKGRFTISRDDSKSIVYLQMSSLKIEDTAVYYCVSRAGPPGLTWGQGVLVTISS
VL: B1 VL with H31A, T36N, L38M, Q50K, L51V, S81T, V90I, L101P, A104G, G105Q
B3: Cab07 scFv (scFv, V domains shown)
VH: B1 VH with E1D, R30S, A60T, T99V, V117I
VL: DTVMTQIPLSLSVTPGEPASISCRSSQRLLHTDGYTYLDWYHQKPGQSPQLLIYGGSNRASGVPDRFSGSGSVTDFTLKISKMEAEDVGVYYCMQHKALPPTFGGGTKLEIK
B4: Cab22 scFv (scFv, V domains shown)
VH: VVQLVESGGGLVQPGGSLKVSCTASGFIFNDYYMQWVRQAPGKGPEWVGLIRNKANGGTTEYAASVKGRFTISRDDSKSIVYLQMSSLKTEDTAVYFCTGRLGPPGLTWGQGVLVTISS
VL: DAVMTQTPLSLPVTPGEPASISCRSSQSLLASDGYNYIDWYLQRPGQSPKVLIYGGSNRASGVPDRFSGSGSGTYFTLKISKVEAEDVGFYFCLQHRALPPTFGQGTKLEIK
B5: Cab08 scFv (scFv, V domains shown)
VH: EVQLVESGGGLIQPGGSLRVSCAASGFTFSDYYLQWVRQAPGKGPEWVGLIRTKRYGGTSEYAASVKGRYTISRDDSKAIAYLQMSSLKTEDTAVYYCVVRIFTGLHWGKGTPVTVSS
VL: B1 VL with I5T, N7T, L11R, S32T, V98A, A104G
B6: Cab24 scFv (scFv, V domains shown)
VH: B2 VH with E1V, H3Q, T108A
VL: B4 VL
B7: Cab09 scFv (scFv, V domains shown)
VH: B2 VH with H3Q, V81A
VL: B1 VL with N7T, L38V, L51I, S81T, K82N, M94L, V98A, L101P, A104G, G105Q
B8: Cab23 scFv (scFv, V domains shown)
VH: EVQLVESGGGLVQPGGSLRLSCAASGFTFSDYYIQWVRQAPGKGPEWVGLIRNKAIGGTVEYAASVKGRFTISRDDSKRIAYLQMRSLKTEDTAVYFCTGRVGPPGLTWGQGVLVTISS
VL: B4 VL
B9: Cab10 scFv (scFv, V domains shown)
VH: B2 VH with E1Q, H3Q, V115I, I117V
VL: B1 VL with I2T, I5S, N7I, S32T, T36I, V98A, A104G
B10: Cab16 scFv (scFv, V domains shown)
VH: B1 VH with Q3H, R30S, A60T, T90P, T99A, S100G, A102L
VL: B1 VL with I2A, I5T, N7I, S32T, V98A, A104G, K108R
B11: Cab25 scFv (scFv, V domains shown)
VH: EVQLVESGGGFVQPGGSLKVSCVASGFTFSDYYIQWVRQAPGKGPEWVGLIRNKAVGGTTTYAASVKGRFTISRDDSKSVAYLQMTSLKTEDTAVYFCVSRAGPPGLSWGQGVLVTISS
VL: B4 VL
B12: Cab11 scFv (scFv, V domains shown)
VH: EVQLVESGGGLVQPGGSLRVSCAASGFRFSDFYMQWVRQAPGKRPEWVGLIRNKPYGGTAEYAASVKGRFTISRDDSKSVTDLQMSSLKTEDTAIYYCVMRNNGYHWGQGVLVTISS
VL: B3 VL with T2A, S12P, R28S, H42L, V73G, M83V
B13: Cab26 scFv (scFv, V domains shown)
VH: EVQLVESGGGLVLPGGSLKVSCAASGFIFSDYYIQWVRQAPGKGPEWVGLIRNKAVGETVQYAASLKGRFTISRDDSKSIAYLQMTSLKTEDTAMYYCVSRAGPPGLTWGQGVLVTISS
VL: B4 VL
B14: Cab12 scFv (scFv, V domains shown)
VH: B1 VH with E1V, R30S, A60T, E61Q, T99V, V117I
VL: B1 VL with M4L, I5T, N7T, S28R, L38M, L51I, V98A, L101P, A104G, G105Q
B15: Cab27 scFv (scFv, V domains shown)
VH: B1 VH with E6Q, E58G, A60T, E61Q, T99V
VL: B4 VL
B16: Cab28 scFv (scFv, V domains shown)
VH: B1 VH with E1D, V2M, R30S, I56V, E58G, A60T, E61Q, Q84E, T99V
VL: DIVMIQNPLSLPVTPGEPASISCRSSQNLLATDGYTYLDWYLQKPGQSPQVLIYGGSKRASGVPDRFSGSGSGTDFTLKISKVEAEDVGIYYCLQHRALPPTFGQGTKLEIK
B17: Cab14 scFv (scFv, V domains shown)
VH: VVQLVESGGGLVQPGGSLKVSCATSGFTFSDYYMQWVRQAPGKGPEWLGLIRNKAIGGTTQYAASVKGRFTISRDDSKGIAYLQMSSLKTEDTAVYYCVCRAGPPGLSWGQGVLVTVSS
VL: B1 VL with V3E, M4L, I5T, N7T, L11R, S32T, V98A, A104G
B18: Cab29 scFv (scFv, V domains shown)
VH: B1 VH with E1D, V2M, R30S, I56V, E58G, A60T, E61Q, Q84E, T99V
VL: DIVMIQNPLSLSVSLGEPASISCRSSQSLLATDGYEYLDWYLQKPGQSPQILIYGASNRASGVPDRFSGRGSGTDFTLKITKVEAEDVGVYYCLQHKALPPTFGQGTKLEIK
B19: Cab02 scFv (scFv, V domains shown)
VH: B2 VH with H3Q, V81A
VL: B1 VL with N7T, S28R, V98A, A104G
B20: Cab30 scFv (scFv, V domains shown)
VH: B1 VH with E1D, V2M, R30S, I56V, E58G, A60T, E61Q, Q84E, T99V
VL: B1 VL with I5T, N7T, K44R, Q50H, L101P, A104G, G105Q
B21: Cab31 scFv (scFv, V domains shown)
VH: B1 VH with E1D, V2M, R30S, I56V, E58G, A60T, E61Q, Q84E, T99V
VL: B1 VL with I2T, I5S, N7I, L38M, L101P, A104G, G105Q, K108R
B22: Cab39 (reformatted as human IgG1) (antibody, V domains shown)
VH: EMQLVESGGGLVQPGGSLRLSCAASGFTFSDYYMQWVRQAPGKGPEWVGLIRNKAVGITTQYAASVKGRFTISRDDSKNSVYLQMNSLKTEDTAVYYCVSRAGPPGLSWGQGVLVTVSS
VL: B4 VL with A2I, T7S, R44K, K50Q, V51L, Y75D, K82R, F90V
B23: Cab32 (reformatted as human IgG1) (antibody, V domains shown)
VH: B22 VH with I58G
VL: B4 VL with A2I, T7S, N36I, R44K, K50Q, V51L, Y75D, K82R, F90V
B24: Cab40 (reformatted as human IgG1) (antibody, V domains shown)
VH: B22 VH with I58Q
VL: B4 VL with A2I, T7S, R44K, K50Q, V51L, Y75D, K82R, F90V
B25: Cab33 (reformatted as human IgG1) (antibody, V domains shown)
VH: B22 VH with I58G
VL: B4 VL with A2I, T7S, R44K, K50Q, V51L, Y75D, K82R, F90V, R97K
B26: Cab41 (reformatted as human IgG1) (antibody, V domains shown)
VH: B22 VH with I58R
VL: B4 VL with A2I, T7S, R44K, K50Q, V51L, Y75D, K82R, F90V
B27: Cab34 (reformatted as human IgG1) (antibody, V domains shown)
VH: B22 VH with I58G, Q61E
VL: B4 VL with A2I, T7S, R44K, K50Q, V51L, Y75D, K82R, F90V
B28: Cab17 scFv (scFv, V domains shown)
VH: B13 VH with E1V, I117V
VL: B16 VL with P12S, N28R, T32S, L38V, V51I, K58N, I90V, L94M, R97K

Target: T1, human C5a (source not stated) (human, UniProt P01031 678-751)
T1 sequence: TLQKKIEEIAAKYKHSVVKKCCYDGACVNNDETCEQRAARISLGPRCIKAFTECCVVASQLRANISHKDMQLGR
Test: cell-based or functional assay

Row | Binder | ROS IC50 [nM]
1 | B1 | 0.81
2 | B2 | 1.03
3 | B3 | 1.07
4 | B4 | 0.91
5 | B5 | 1.29
6 | B6 | 1.44
7 | B7 | 1.54
8 | B8 | 0.92
9 | B9 | 2.02
10 | B10 | 0.87
11 | B11 | 0.54
12 | B12 | 1.57
13 | B13 | 1.13
14 | B14 | 1.22
15 | B15 | 1.21
16 | B16 | 0.98
17 | B17 | 1.2
18 | B18 | 0.96
19 | B19 | 1.67
20 | B20 | 1.18
21 | B21 | 1.26
22 | B22 | 0.91
23 | B23 | 1.76
24 | B24 | 0.7
25 | B25 | 1.7
26 | B26 | 0.7
27 | B27 | 1.61
28 | B28 | 1.87
